Consider one molecule from publication PMC8389195, “Demyristoylation of the Cytoplasmic Redox Protein Trx-h2 Is Critical for Inducing a Rapid Cold Stress Response in Plants”.

The series has as its target MBP-CBF1 (Arabidopsis thaliana, UniProt P93835 1-213). Kind of series: EMSA; NADPH, Trx reductase, Trx-h2 (reduced CBF1); EMSA kit (Thermo Fisher), poly(dI-dC) binding buffer, NADPH/Trx reductase/Trx-h2 system, 6% polyacrylamide gel; proteins dialyzed in 20 mM HEPES-NaOH pH 8.0; salt and temperature not stated. Conditions: protein: recombinant; tags: MBP (N-terminal, pMAL vector); blunt. (In general: Mobility shift assays separate free from complexed probe on a gel.)

Chain of MBP-CBF1 (P93835 whole entry): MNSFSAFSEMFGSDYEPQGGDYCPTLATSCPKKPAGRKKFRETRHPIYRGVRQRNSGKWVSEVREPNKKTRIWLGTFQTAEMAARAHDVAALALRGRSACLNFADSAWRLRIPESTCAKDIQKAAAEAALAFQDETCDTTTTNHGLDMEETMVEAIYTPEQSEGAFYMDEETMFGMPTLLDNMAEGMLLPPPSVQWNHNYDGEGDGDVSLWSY

B1: COR15a promoter CRT/DRE probe (dsDNA)
DNA 1: ATTTCATGGCCGACCTGCTTTTT
DNA 2: AAAAAGCAGGTCGGCCATGAAAT
As to B1, the binding result is “binds”.
